The source of these data is patent US20140322269A1.

As a reminder, the Kd is the constant that tells how readily two partners part at equilibrium. A lower Kd goes with tighter binding.

Experiment [1] addresses c1d1_v2 displayed on yeast (Saccharomyces cerevisiae). Description: yeast surface display; Fab titration, flow cytometry. On the technique in general: A flow cytometer gives signals particle by particle.
The target in experiment [2] is c1d1_N386D displayed on yeast (Saccharomyces cerevisiae). The experiment is described as above.
The target of experiment [3] is c1d1_b10disulf displayed on yeast (Saccharomyces cerevisiae). Described as above.
Experiment [4] concerns the target wild-type core GP120 (soluble, mammalian-expressed) (HIV, HxB2 strain) (UniProt P04578). Description: method not restated; rounded form of 3.9 nM of Table 1.
The target in experiment [5] is c1d1_N386D. Description: method not restated.
In experiment [6] the target is c1d1_N386D. Kind of experiment: SPR, kinetics fitting. A general note: Surface plasmon resonance follows binding to a sensor surface in real time, without labels.
Experiment [7] has as its target eOD_N276D_N463D. Description: method not given; protein from 293 cells.
The target in experiment [8] is wild-type core GP120 (soluble, mammalian-expressed) (HIV, HxB2 strain) (UniProt P04578). Description: SPR; IgG captured by anti-human IgG, gp120 as analyte.
For experiment [9], the target named is ODml(N386) (Human immunodeficiency virus type 1 group M subtype B (isolate HXB2) (HIV-1)) (UniProt P04578). Description: SPR; IgG captured, OD variant as analyte.
In another experiment the target is c2d1_b10disulf. Kind of experiment: SPR; IgG captured, OD variant as analyte.
Experiment [10] concerns the target c1d1_N386D. Kind of experiment: SPR and ITC.
The target in experiment [11] is c1d1_N386D. Kind of experiment: ITC. In general terms: ITC needs no label: the signal is the heat of the interaction.
The target of another experiment is c1d1_b10disulf. Kind of experiment: ITC.
Another experiment addresses eOD_L260F. Description: method not given.
A further experiment concerns the target eOD_T257S_L260F_S375W. Description: method not given.
The target in a further experiment is eOD_T257S_S375W. Description: method not given.
In another experiment the target is eOD_L260F_N276D. Kind of experiment: method not given.
In a further experiment the target is eOD_N276D. Kind of experiment: method not given.
Experiment [12] concerns the target c1d1_N386D. Description: SPR.
Experiment [13] has as its target eOD_N276D_N463D. Kind of experiment: method not given.

With VRC01 Fab, the Kd in experiment [1], in [2] and in experiment [3] was more than 50 nM throughout.

Regarding VRC01 IgG (mature VRC01) (antibody), the Kd in experiment [4] came to 4 nM; with c1d1_N386D [5], 80 nM; in the experiment with c1d1_N386D [6], 139 nM; with eOD_N276D_N463D [7], 4 nM; in experiment [8], 3.9 nM; in experiment [9] it was 298 nM. The dissociation constant (Kd) with c2d1_b10disulf came to 289 nM; with c1d1_N386D [11] it was 200 nM; with c1d1_b10disulf it was 100 nM; with eOD_L260F, 14.3 nM; with eOD_T257S_L260F_S375W, 8.6 nM; with eOD_T257S_S375W, 90 nM. Further, the dissociation constant (Kd) in the experiment with eOD_L260F_N276D was determined as 0.0119 µM; with eOD_N276D, 0.0278 µM. Moreover, the fold weaker affinity than core gp120 with c1d1_N386D [5] is more than 10 fold. In the experiment with c1d1_N386D [10], this substance had a fold worse KD than core gp120 of 35 to 50 fold. In addition, the fold improvement of KD over c1d1 N386D in the experiment with c1d1_b10disulf turned out to be 2 fold.

For the substance b12 Fab, the results for the dissociation constant Kd in [1] and in experiment [2] were 11 nM and 21 nM, respectively.

In the experiment with c1d1_N386D [12], b12 IgG (antibody) had a fold improvement of KD over OD (386) of 28 fold.

With germline VRC01 IgG (antibody), the Kd is more than 500000 nM with eOD_L260F, 380 µM with eOD_N276D_N463D [13], 149 µM with eOD_L260F_N276D and 640 µM with eOD_N276D.
